Among the data in patent US20240409619A1 are serum potency (IC50) against USA-WA1/2020 pseudovirus values, retold here.

The assay addresses SARS-COV-2 spike protein, isolate USA-WA1/2020, on pseudotyped virus (SARS-COV-2) (UniProt P0DTC2). The assay is described as follows: cell-based or functional assay.

DMAb 2130_FcTM (antibody) displayed a serum potency (IC50) against USA-WA1/2020 pseudovirus of 1 to 2 ng/mL.
